From the RNAGym collection of RNA variant scans (doi:10.7554/elife.80360)

B1: Hammerhead Ribozyme (parent)
chain: ACCGGAUGUGCUUUCCGGUCUGAUGAGUCCGUGAGGACGAAACAG

Variants of: B1
Experiment: self-cleavage, relative activity (ratio to wild type); higher = more cleavage; co-transcriptional

Row | Variant | self-cleavage
1 | C16G A42G | 0.346
2 | C3U G33C | 0.957
3 | C15A A40G | 0.415
4 | C2U C11G | 1.5
5 | U13A G45U | 1.02
6 | C11A C30G | 0.955
7 | C15U A42C | 0.351
8 | G5U U7G | 0.708
9 | C2U G8A | 0.998
10 | A1G C38G | 0.865
11 | C11U C38U | 1.02
12 | G31U G45A | 0.95
13 | G10A G39C | 0.45
14 | G10A G22A | 0.352
15 | C30G A34C | 0.802
16 | C2A G31U | 0.828
17 | C16U G31U | 1.2
18 | C3G A42C | 0.31
19 | C38G C43U | 0.393
20 | U12C G45A | 0.777
21 | C2U A41U | 0.365
22 | G18C G36U | 0.337
23 | G17C U32C | 0.444
24 | C15A G31U | 0.999

Row | Variant | self-cleavage
25 | G31U A40U | 0.399
26 | G5C U21C | 0.507
27 | C3G U7A | 0.471
28 | A6G A26U | 0.71
29 | C16G U28A | 0.407
30 | G4C A34C | 0.679
31 | G4C A34G | 0.596
32 | C3A A40C | 0.324
33 | C30U A37G | 1.21
34 | C15G A42C | 0.277
35 | C2U U21C | 0.273
36 | A1U G39U | 0.347
37 | G17C G36U | 0.392
38 | U21C U28C | 0.977
39 | C43A G45U | 0.68
40 | U14A G31U | 1.31
41 | U7A U13C | 1.43
42 | C2G C30G | 0.237
43 | C30G G35A | 1.06
44 | A23G A26G | 0.327
45 | G25U A44U | 0.373
46 | C3G A44C | 0.374
47 | G5U C43U | 0.371
48 | C15U G31C | 0.967

Row | Variant | self-cleavage
49 | G8A A41C | 0.353
50 | U19G A37G | 0.3
51 | U21A U28C | 0.529
52 | U19C | 0.737
53 | A37C C38A | 0.535
54 | G17A U24C | 0.88
55 | U14G U21C | 0.812
56 | G25C C29U | 0.235
57 | U12C A42C | 0.32
58 | U12C A42G | 0.255
59 | C16U G33U | 0.945
60 | C16U G33A | 1.14
61 | G8A U28C | 1.36
62 | C3U G18A | 0.412
63 | A23U A34U | 0.28
64 | C15U A23U | 0.342
65 | U14C G17A | 0.494
66 | U12C A37C | 0.573
67 | G17C G33C | 0.458
68 | A1U G22U | 0.33
69 | C3U G36C | 0.424
70 | C20G C30A | 0.335
71 | G4U A23G | 0.303
72 | U7A U19G | 0.25

Row | Variant | self-cleavage
73 | U13C G36U | 0.598
74 | A1C G25A | 0.255
75 | A41C G45A | 0.39
76 | G39A A44G | 0.718
77 | A6G A34C | 0.604
78 | A23C C30A | 0.306
79 | U24C G36U | 0.541
80 | C20G G35U | 0.353
81 | G8C C20U | 0.433
82 | A1C U14A | 0.348
83 | U14G G31A | 0.929
84 | A6C A37C | 0.475
85 | G27A A42U | 0.301
86 | G22U | 0.362
87 | G10C U14A | 0.796
88 | G8C A23C | 0.45
89 | G25U C38U | 0.37
90 | U9C U24A | 1.29
91 | A1U U12A | 0.66
92 | G8C U14G | 1.11
93 | U9A C20U | 0.557
94 | U13A G18C | 0.777
95 | A34U C43G | 0.315
96 | U13G U19A | 0.301

Row | Variant | self-cleavage
97 | C20A G33C | 0.555
98 | A1U G36U | 0.438
99 | G10C U28C | 1.01
100 | U12C C15A | 0.565
101 | C11G A37U | 0.897
102 | A34G G39C | 0.338
103 | U24G U32G | 0.405
104 | U28A A37C | 0.398
105 | A6U U12G | 0.447
106 | G18U G35U | 0.532
107 | G5A G10U | 1.73
108 | C20A A26U | 0.342
109 | G8U A34U | 0.792
110 | C3A A42U | 0.356
111 | C3A G25A | 0.298
112 | A34U G36C | 0.406
113 | G10C U13G | 1.24
114 | U28G G36C | 0.317
115 | A6C U19G | 0.269
116 | C3A U14A | 0.422
117 | U7C G31U | 1.1
118 | U24C A40G | 0.27
119 | U21A A40G | 0.271
120 | U21A A40C | 0.315

Row | Variant | self-cleavage
121 | G10C G25U | 0.277
122 | G10C A34U | 0.934
123 | C3G U14C | 0.56
124 | C29G C30G | 0.476
125 | G17C A41C | 0.272
126 | U24G A44G | 1.49
127 | U12A C15A | 0.979
128 | C11G G36C | 0.998
129 | U13G G39A | 0.332
130 | G17A G27C | 0.399
131 | A1G G17U | 1.02
132 | C16A G31U | 1.29
133 | G27C G36C | 0.257
134 | G5C A23C | 0.326
135 | U24G G33U | 1.02
136 | C11U C15A | 1.02
137 | C2G U24G | 0.356
138 | C2G U24C | 0.383
139 | G8A U14C | 0.975
140 | A6G U24C | 0.944
141 | U21A G25U | 0.333
142 | U9G A37C | 0.805
143 | U14C G18C | 0.351
144 | G17C G25C | 0.403

Row | Variant | self-cleavage
145 | G8A U12C | 0.897
146 | C30A A40G | 0.414
147 | G27C G39A | 0.302
148 | G8U C20U | 0.551
149 | G39A C43A | 0.284
150 | G8C U21A | 0.784
151 | G27C A41C | 0.339
152 | G4A C43U | 0.271
153 | A1U C43U | 0.413
154 | A34G G45A | 0.589
155 | G39U G45C | 0.408
156 | U7A C29A | 0.511
157 | G10A U32A | 1.14
158 | C15A A23G | 0.428
159 | A6U C29G | 0.468
160 | G4C G45C | 0.4
161 | G10A C43A | 0.295
162 | C2U G31A | 1.11
163 | A26U A40U | 0.341
164 | G17C A37C | 0.505
165 | U28G G35A | 0.384
166 | G25U G36C | 0.312
167 | A6U C38U | 0.627
